In publication PMC11522927:

Molecular target: VirC^4A (HMG synthase VirC, Cys114Ala/Gln334Ala/Arg335Ala/Arg338Ala) (Streptomyces virginiae)
Assay: SEC-SAXS

## VirC^4A (HMG synthase VirC, Cys114Ala/Gln334Ala/Arg335Ala/Arg338Ala) (enzyme)
  stoichiometry N: 2
